In US20190022241A1 (AbbVie / Abbott, published 2019):

T1: rat SEZ6 on RIN-m5F cells (rat, UniProt Q7TSK2 20-991 (mouse entry))
T1 construct: endogenous on RIN-m5F cells; also called rSEZ6
T1 chain: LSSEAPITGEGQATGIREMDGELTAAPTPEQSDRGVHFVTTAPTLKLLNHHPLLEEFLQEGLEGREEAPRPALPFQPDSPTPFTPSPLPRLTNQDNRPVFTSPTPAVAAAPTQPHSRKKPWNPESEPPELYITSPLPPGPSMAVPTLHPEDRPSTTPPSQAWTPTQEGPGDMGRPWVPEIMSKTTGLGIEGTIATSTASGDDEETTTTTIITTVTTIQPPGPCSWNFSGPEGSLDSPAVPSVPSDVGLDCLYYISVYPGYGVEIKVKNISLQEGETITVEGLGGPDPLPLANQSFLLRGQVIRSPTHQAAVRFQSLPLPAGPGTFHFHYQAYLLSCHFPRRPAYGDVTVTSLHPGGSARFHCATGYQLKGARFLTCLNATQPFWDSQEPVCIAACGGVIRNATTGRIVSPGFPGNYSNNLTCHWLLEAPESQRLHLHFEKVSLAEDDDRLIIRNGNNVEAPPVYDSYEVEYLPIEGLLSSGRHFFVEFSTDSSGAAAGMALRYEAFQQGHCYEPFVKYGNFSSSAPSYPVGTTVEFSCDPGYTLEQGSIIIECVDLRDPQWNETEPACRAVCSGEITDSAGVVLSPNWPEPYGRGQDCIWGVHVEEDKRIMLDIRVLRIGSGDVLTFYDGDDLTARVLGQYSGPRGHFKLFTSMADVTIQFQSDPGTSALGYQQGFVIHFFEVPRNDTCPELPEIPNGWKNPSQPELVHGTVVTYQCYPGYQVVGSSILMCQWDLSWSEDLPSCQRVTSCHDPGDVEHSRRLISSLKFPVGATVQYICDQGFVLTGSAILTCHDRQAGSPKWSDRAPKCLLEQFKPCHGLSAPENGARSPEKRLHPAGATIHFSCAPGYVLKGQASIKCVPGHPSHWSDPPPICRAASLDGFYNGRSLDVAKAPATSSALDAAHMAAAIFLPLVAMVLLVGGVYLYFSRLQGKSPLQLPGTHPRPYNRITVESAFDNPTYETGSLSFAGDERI

T2: human SEZ6L ECD-His (human, UniProt Q9BYH1 29-955)
T2 construct: whole entry named
T2 sequence: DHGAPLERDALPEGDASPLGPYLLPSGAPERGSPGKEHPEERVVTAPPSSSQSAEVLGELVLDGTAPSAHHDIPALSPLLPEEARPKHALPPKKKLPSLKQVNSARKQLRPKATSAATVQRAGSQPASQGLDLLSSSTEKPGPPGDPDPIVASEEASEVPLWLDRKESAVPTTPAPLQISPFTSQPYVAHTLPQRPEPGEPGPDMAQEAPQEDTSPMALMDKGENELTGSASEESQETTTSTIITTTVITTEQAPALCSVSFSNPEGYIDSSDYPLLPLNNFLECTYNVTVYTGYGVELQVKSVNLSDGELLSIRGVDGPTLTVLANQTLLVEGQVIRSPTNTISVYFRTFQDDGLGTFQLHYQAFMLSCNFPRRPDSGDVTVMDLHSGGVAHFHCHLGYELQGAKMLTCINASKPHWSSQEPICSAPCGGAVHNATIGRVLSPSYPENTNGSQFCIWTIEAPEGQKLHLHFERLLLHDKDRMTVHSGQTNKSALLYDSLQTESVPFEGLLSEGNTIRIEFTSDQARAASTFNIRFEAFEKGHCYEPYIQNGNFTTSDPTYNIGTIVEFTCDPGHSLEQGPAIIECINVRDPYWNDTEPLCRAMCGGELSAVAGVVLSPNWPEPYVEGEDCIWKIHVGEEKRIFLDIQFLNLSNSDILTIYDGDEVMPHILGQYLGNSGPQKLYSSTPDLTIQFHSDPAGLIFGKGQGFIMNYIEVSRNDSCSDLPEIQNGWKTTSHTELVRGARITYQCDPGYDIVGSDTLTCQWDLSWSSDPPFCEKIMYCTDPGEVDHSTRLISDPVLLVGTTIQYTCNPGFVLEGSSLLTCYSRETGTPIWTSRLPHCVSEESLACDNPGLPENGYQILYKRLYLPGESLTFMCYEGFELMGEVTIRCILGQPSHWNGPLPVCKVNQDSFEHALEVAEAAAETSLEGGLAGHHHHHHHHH

T3: rSEZ6-ECD-His (rat, UniProt Q7TSK2 20-922 (mouse entry))
T3 construct: the whole entry is named; also called rat recombinant SEZ6-His; rat SEZ6 ECD
T3 chain: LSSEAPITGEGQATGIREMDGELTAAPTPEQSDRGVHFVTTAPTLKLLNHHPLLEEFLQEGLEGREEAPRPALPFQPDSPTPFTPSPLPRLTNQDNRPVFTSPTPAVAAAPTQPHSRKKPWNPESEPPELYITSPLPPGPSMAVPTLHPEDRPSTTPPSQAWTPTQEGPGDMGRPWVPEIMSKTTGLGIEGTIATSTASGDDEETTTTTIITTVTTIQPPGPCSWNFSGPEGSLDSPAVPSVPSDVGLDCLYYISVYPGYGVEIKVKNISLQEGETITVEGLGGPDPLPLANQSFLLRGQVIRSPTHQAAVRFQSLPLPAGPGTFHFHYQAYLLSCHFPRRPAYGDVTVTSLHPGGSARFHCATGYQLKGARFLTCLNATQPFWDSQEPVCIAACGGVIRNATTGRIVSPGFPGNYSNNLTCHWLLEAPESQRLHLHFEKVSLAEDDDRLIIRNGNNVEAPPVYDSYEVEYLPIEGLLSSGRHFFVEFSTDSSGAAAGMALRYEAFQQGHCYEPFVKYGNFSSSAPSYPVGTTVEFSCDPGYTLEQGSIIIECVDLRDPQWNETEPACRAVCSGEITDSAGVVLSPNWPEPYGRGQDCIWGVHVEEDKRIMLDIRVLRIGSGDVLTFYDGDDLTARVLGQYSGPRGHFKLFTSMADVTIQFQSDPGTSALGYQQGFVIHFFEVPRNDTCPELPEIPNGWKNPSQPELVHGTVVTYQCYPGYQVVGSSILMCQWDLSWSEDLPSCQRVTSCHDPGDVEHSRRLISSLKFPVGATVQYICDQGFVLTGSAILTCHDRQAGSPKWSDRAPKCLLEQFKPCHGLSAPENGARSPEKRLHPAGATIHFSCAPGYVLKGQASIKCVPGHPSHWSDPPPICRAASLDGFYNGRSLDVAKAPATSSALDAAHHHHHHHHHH

T4: extracellular domain of cynomolgus SEZ6 on yeast (cynomolgus, UniProt Q53EL9 23-925 (human entry))
T4 construct: yeast display; the whole entry is named; also called cSEZ6; cynomolgus SEZ6 ECD
T4 chain: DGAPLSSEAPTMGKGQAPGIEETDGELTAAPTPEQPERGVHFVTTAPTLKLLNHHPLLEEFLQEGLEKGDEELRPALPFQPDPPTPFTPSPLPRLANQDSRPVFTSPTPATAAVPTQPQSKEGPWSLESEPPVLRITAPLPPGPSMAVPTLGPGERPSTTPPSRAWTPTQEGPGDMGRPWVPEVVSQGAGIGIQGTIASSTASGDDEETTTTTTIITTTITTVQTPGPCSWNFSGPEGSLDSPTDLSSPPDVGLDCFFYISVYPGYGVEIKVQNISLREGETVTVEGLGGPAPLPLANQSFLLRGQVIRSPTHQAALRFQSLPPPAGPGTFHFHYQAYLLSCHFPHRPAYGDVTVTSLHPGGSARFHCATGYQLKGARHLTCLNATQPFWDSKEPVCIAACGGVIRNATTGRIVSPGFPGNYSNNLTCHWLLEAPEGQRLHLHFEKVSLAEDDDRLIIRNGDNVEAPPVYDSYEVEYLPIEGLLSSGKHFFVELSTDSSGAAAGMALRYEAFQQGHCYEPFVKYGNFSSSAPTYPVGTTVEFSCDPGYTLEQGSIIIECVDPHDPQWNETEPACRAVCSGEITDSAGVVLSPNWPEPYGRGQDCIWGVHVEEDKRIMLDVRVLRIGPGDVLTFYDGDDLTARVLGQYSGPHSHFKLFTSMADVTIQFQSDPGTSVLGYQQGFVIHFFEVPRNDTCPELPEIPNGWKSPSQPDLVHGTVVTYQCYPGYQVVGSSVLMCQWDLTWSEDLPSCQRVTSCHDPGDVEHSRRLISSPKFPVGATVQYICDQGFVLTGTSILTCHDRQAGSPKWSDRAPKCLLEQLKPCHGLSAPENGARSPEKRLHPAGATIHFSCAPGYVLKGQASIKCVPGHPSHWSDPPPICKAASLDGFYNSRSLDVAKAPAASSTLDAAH


Legend:
[1] = molecular target: T5, mouse SEZ6 on Neuro2a cells (mouse, UniProt Q7TSK2 20-991); assay: flow cytometry, Neuro2a cells, 5 ug/mL antibody
T5 construct: endogenous on Neuro2a cells; also called murine SEZ6; mSEZ6
Description: (§1) Briefly 1×10⁵ cells per well of Neuro2a, RIN-5mF, or yeast displaying cynomolgus SEZ6 cells were incubated for 30 minutes with 50 μL PBS (2% FCS) buffer with 5 μg/mL antibody. […] After incubating for 15 minutes cells were washed twice with the PBS buffer and re-suspended in the same with DAPI for flow cytometry analysis of Neuro2a and Rin-m5F or buffer without DAPI for flow cytometric analysis of yeast cells with cSEZ6.

hSEZ6-ECD-His = molecular target: T6, hSEZ6-ECD-His (human, UniProt Q53EL9 20-925); assay: bio-layer interferometry (ForteBio RED) or surface plasmon resonance (Biacore 2000) on human SEZ6-His; the table does not say which; column Hu Affinity (Kd, nM)
T6 construct: the whole entry is named; also called recombinant SEZ6-His; human recombinant SEZ6-His
Excerpt: (§2) Various methods were used to analyze the binding and immunochemical characteristics of selected SEZ6 modulators generated as set forth above.

[2] = molecular target: T1, rat SEZ6 on RIN-m5F cells; assay: flow cytometry, RIN-m5F cells, 5 ug/mL antibody
Description: as §1

human SEZ6L ECD-His = molecular target: T2, human SEZ6L ECD-His; assay: ELISA on plates coated with SEZ6L protein
human SEZ6L2 ECD-His [3] = molecular target: T7, human SEZ6L2 ECD-His (human, UniProt Q6UXD5 28-843); assay: mark of Table 5 for antibodies that bind SEZ6L2
T7 construct: whole entry named
T7 sequence (Q6UXD5 other isoform, or with tags, fused parts or gaps): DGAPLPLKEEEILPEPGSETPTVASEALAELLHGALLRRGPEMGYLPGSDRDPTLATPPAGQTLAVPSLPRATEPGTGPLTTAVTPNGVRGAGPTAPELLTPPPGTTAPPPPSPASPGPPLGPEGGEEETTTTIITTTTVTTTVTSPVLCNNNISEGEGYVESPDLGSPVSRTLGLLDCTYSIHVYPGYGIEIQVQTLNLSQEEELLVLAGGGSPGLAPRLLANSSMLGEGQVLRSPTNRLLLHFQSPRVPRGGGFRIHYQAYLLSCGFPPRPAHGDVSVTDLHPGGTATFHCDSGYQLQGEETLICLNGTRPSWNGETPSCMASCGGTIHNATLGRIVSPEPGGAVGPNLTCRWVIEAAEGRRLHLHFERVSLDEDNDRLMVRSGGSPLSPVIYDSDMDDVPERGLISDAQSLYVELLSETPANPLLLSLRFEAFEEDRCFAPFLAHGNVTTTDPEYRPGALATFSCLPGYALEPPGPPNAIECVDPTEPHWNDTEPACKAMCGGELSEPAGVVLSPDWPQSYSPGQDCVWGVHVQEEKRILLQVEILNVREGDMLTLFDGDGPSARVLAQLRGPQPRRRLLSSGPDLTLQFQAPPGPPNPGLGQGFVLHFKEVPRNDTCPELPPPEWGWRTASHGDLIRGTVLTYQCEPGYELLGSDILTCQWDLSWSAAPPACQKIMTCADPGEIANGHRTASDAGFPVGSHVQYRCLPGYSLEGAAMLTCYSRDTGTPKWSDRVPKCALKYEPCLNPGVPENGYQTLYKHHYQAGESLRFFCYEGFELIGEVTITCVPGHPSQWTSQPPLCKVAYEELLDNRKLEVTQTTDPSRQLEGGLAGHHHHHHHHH

rSEZ6-ECD-His = molecular target: T3, rSEZ6-ECD-His; assay: bio-layer interferometry (ForteBio RED) or surface plasmon resonance (Biacore 2000) on rat SEZ6-His; the table does not say which; column Rat XR (Kd, nM)
Excerpt: as §2

[4] = molecular target: T5, mouse SEZ6 on Neuro2a cells; assay: flow cytometry on Neuro2a cells expressing mouse SEZ6
Description: as §1

[5] = molecular target: T1, rat SEZ6 on RIN-m5F cells; assay: flow cytometry on RIN-m5F cells expressing rat SEZ6, verified by BLI or SPR on rat SEZ6-His
Description: as §1
To verify the cross reactivity data above for rat SEZ6 and to determine the affinity and kinetic constants kₒₙ and koff of the selected effectors, either bio-layer interferometry analysis on a ForteBio RED (ForteBio, Inc.) or surface plasmon resonance on a Biacore 2000 (GE Healthcare) were conducted.

[6] = molecular target: T4, extracellular domain of cynomolgus SEZ6 …; assay: flow cytometry, yeast displaying cynomolgus SEZ6 ECD, 5 ug/mL antibody
Description: as §1

human SEZ6L2 ECD-His [7] = molecular target: T7, human SEZ6L2 ECD-His; assay: ELISA on plates coated with SEZ6L2 protein
Description: To determine cross reactivity to family member proteins, SEZ6L and SEZ6L2, an ELISA-based assay was used. Plates were coated with SEZ6, SEZ6L, or SEZ6L2 proteins at 0.2 μg/mL in PBS overnight. After washing with PBS containing 0.05% (v/v) Tween 20 (PB ST), the wells were blocked with 2% (w/v) BSA in PBS (PB SA), 100 μL/well for 1 hour at room temperature. Antibody was then added at 1 μg/mL in 100 μL PBSA for 1 hour at room temperature. After washing with PBST, 100 μL/well HRP-labeled goat anti-mouse IgG diluted 1:2,000 in PBSA for 1 hour at room temperature. […] After developing, an equal volume of 2M H₂SO₄ was added to stop substrate development and analyzed by spectrophotometer at OD 450.

binding result [1] | Kd (hSEZ6-ECD-His) [nM] | binding result [2] | binding result (human SEZ6L ECD-His) | binding result (human SEZ6L2 ECD-His [3]) | Kd (rSEZ6-ECD-His) [nM] | binding result [4] | binding result [5] | binding result [6] | binding result (human SEZ6L2 ECD-His [7]) | Binder
binds | 5.1 |  | no binding (tested: 1 µg/mL) |  |  |  | no binding (tested: 5 µg/mL) | binds | no binding (tested: 1 µg/mL) | SC17.24 (antibody, V domains shown, murine mAb) VH: QVQLQQSDAELVKPGASVKISCKVSGYTFTDHTIHWMKQRPEQGLEWIGYIYPRDGSTKYNEEFKGKATLTADKSSSTAYMQLNSLTSEDSAVYFCARSYSNYFDYWGQGTTLTVSS VL: DIVMSQSPSSLAVSVGEKVTMSCKSSQSLLYSSNQKSYLAWYQQKPGQSPKLLIYWASTRESGVPDRFTGSGSGTDFTLTISSVQAEDLAVYYCKQSYNLRTFGGGTKLEIK
 | 6.3 |  | no binding (tested: 1 µg/mL) |  |  | no binding (tested: 5 µg/mL) | no binding (tested: 5 µg/mL) | binds | no binding (tested: 1 µg/mL) | SC17.36 (antibody, V domains shown, murine mAb) VH: EVQLQESGPSLVKPSQSQSLTCSVTGDSITSDYWNWIRKFPGKKVEYMGYINYSGSTYYNPSLKSRISITRDTSKNQYYLQLNSVTSEDTATYYCARTSYYNKFLPFAYWGQGTLVTVSA VL: QIVLTQSPALMSASPGEKVTMTCSASSSVSYMYWYQQKPRSSPKPWIYLTSNLASGVPARFSGSGSGTSYSLTISSMEAEDAATYYCQQWSSNPPTFGGGTKLEIK

The next lines start with the binder.

Binder | binding result [1] | Kd (hSEZ6-ECD-His) [nM] | binding result [2] | binding result (human SEZ6L ECD-His) | binding result (human SEZ6L2 ECD-His [3]) | Kd (rSEZ6-ECD-His) [nM] | binding result [4] | binding result [5] | binding result [6] | binding result (human SEZ6L2 ECD-His [7])
SC17.19 (antibody, V domains shown, murine mAb) VH: DVQLQESGPGLVKPSQSLSVTCTVTGYSITSSYTWNWIRQFPGNKLEWMGYIHYSGSTNYNPSLRSRISITRDTSKNQFFLQLNSVTTEDTATYYCARSRYYYDAYGFAYWGQGTLVTVSA VL: DIVLTQSPASLAVSLGQRAAISCKPSQSVDYDGDSYMNWYQQKPGQPPKLLIYAASNLESGIPARFSGSGSGTDFTLNIHPVEEEDAATYYCHQINDDPWTFGGGTKLK | binds | 5.3 | binds | no binding (tested: 1 µg/mL) | binds |  |  |  |  | 
SC17.28 (antibody, V domains shown, murine mAb) VH: QVHLPQSRPELVKPGASVKISCKASGYGFTRSYIHWVKQRPGQGLEWIGYISSGSGGTTYNQKFKGKASLTADNPSSTAYMHLSSLTSEDSAIYFCARGGVRYFDVWGAGTTVTVSS VL: DILLTQSPAILSVSPGEGVSFSCRASQSIGTSIHWYQQRTNGSPRLLIKYASESISGIPSRFSGSGSGTDFTLRINSLESEDIADYYCQQSNSWPLTFGAGTKLELK |  | 22.1 | binds | no binding (tested: 1 µg/mL) | binds | 31 | no binding (tested: 5 µg/mL) |  |  | 
